Measured values reported in patent US20160264649A1.

Experiments:
Assay in all cases: cell-based or functional assay
[1] = biological target: HIV-1 Env of isolate 92TH021 (subtype AE) (HIV-1)
[2] = biological target: HIV-1 Env of isolate 92UG031 (subtype A) (HIV-1)
[3] = biological target: HIV-1 Env of isolate 92UG037 (subtype A) (HIV-1)
[4] = biological target: HIV-1 Env of isolate 92UG114 (subtype D) (HIV-1)
[5] = biological target: HIV-1 Env of isolate 92WR009 (subtype A) (HIV-1)
[6] = biological target: HIV-1 Env of isolate 92WR020 (subtype A) (HIV-1)
[7] = biological target: HIV-1 Env of isolate 92WR021 (subtype A) (HIV-1)
[8] = biological target: HIV-1 Env of isolate 92WR024 (subtype A) (HIV-1)
[9] = biological target: HIV-1 Env of isolate 92WR026 (subtype A) (HIV-1)
[10] = biological target: HIV-1 Env of isolate 93UG077 (subtype A) (HIV-1)
[11] = biological target: HIV-1 Env of isolate 93WR029 (subtype A) (HIV-1)
[12] = biological target: HIV-1 Env of isolate 94 KE 105 (subtype AC) (HIV-1)
[13] = biological target: HIV-1 Env of isolate 94UG103 (subtype A) (HIV-1)
[14] = biological target: HIV-1 Env of isolate CMU02 (subtype AE) (HIV-1)
[15] = biological target: HIV-1 Env of isolate MGRM-AE-001 (subtype AE) (HIV-1)
[16] = biological target: HIV-1 Env of isolate MGRM-AE-002 (subtype AE) (HIV-1)
[17] = biological target: HIV-1 Env of isolate MGRM-AE-003 (subtype AE) (HIV-1)
[18] = biological target: HIV-1 Env of isolate MGRM-AE-004 (subtype AE) (HIV-1)
[19] = biological target: HIV-1 Env of isolate MGRM-AE-005 (subtype AE) (HIV-1)
[20] = biological target: HIV-1 Env of isolate MGRM-AE-006 (subtype AE) (HIV-1)
[21] = biological target: HIV-1 Env of isolate MGRM-AE-007 (subtype AE) (HIV-1)
[22] = biological target: HIV-1 Env of isolate MGRM-AE-008 (subtype AE) (HIV-1)
[23] = biological target: HIV-1 Env of isolate MGRM-D-001 (subtype D) (HIV-1)
[24] = biological target: HIV-1 Env of isolate MGRM-D-002 (subtype D) (HIV-1)
[25] = biological target: HIV-1 Env of isolate MGRM-D-003 (subtype D) (HIV-1)
[26] = biological target: HIV-1 Env of isolate MGRM-D-004 (subtype D) (HIV-1)
[27] = biological target: HIV-1 Env of isolate MGRM-D-005 (subtype D) (HIV-1)
[28] = biological target: HIV-1 Env of isolate MGRM-D-008 (subtype D) (HIV-1)
[29] = biological target: HIV-1 Env of isolate MGRM-D-011 (subtype D) (HIV-1)
[30] = biological target: HIV-1 Env of isolate MGRM-D-012 (subtype D) (HIV-1)
[31] = biological target: HIV-1 Env of isolate MGRM-D-013 (subtype D) (HIV-1)
[32] = biological target: HIV-1 Env of isolate MGRM-D-014 (subtype D) (HIV-1)
[33] = biological target: HIV-1 Env of isolate MGRM-D-016 (subtype D) (HIV-1)
[34] = biological target: HIV-1 Env of isolate MGRM-D-018 (subtype D) (HIV-1)
[35] = biological target: HIV-1 Env of isolate MGRM-D-019 (subtype D) (HIV-1)
[36] = biological target: HIV-1 Env of isolate MGRM-D-020 (subtype D) (HIV-1)
[37] = biological target: HIV-1 Env of isolate MGRM-D-021 (subtype D) (HIV-1)
[38] = biological target: HIV-1 Env of isolate MGRM-D-022 (subtype D) (HIV-1)
[39] = biological target: HIV-1 Env of isolate MGRM-D-024 (subtype D) (HIV-1)
[40] = biological target: HIV-1 Env of isolate MGRM-D-026 (subtype D) (HIV-1)
[41] = biological target: HIV-1 Env of isolate MGRM-D-028 (subtype D) (HIV-1)
[42] = biological target: HIV-1 Env of isolate MGRM-D-029 (subtype D) (HIV-1)
[43] = biological target: HIV-1 Env of isolate MGRM-F1-004 (subtype F) (HIV-1)
[44] = biological target: HIV-1 Env of isolate MGRM-F1-006 (subtype F) (HIV-1)
[45] = biological target: HIV-1 Env of isolate MGRM-F1-008 (subtype F) (HIV-1)
[46] = biological target: HIV-1 Env of isolate MGRM-F1-010 (subtype F) (HIV-1)
[47] = biological target: HIV-1 Env of isolate MGRM-F1-012 (subtype F) (HIV-1)
[48] = biological target: HIV-1 Env of isolate MGRM-F1-013 (subtype F) (HIV-1)
[49] = biological target: HIV-1 Env of isolate MGRM-F1-014 (subtype F) (HIV-1)
[50] = biological target: HIV-1 Env of isolate MGRM-F1-015 (subtype F) (HIV-1)
[51] = biological target: HIV-1 Env of isolate MGRM-F1-016 (subtype F) (HIV-1)
[52] = biological target: HIV-1 Env of isolate MGRM-F1-017 (subtype F) (HIV-1)
[53] = biological target: HIV-1 Env of isolate MGRM-F1-018 (subtype F) (HIV-1)
[54] = biological target: HIV-1 Env of isolate MGRM-F1-020 (subtype F) (HIV-1)
[55] = biological target: HIV-1 Env of isolate MGRM-F1-021 (subtype F) (HIV-1)
[56] = biological target: HIV-1 Env of isolate MGRM-F1-022 (subtype F) (HIV-1)
[57] = biological target: HIV-1 Env of isolate MGRM-F1-023 (subtype F) (HIV-1)
[58] = biological target: HIV-1 Env of isolate VLGCA1 (subtype A) (HIV-1)

Sequence of PGT-144 (4970_K22) (antibody) (VH): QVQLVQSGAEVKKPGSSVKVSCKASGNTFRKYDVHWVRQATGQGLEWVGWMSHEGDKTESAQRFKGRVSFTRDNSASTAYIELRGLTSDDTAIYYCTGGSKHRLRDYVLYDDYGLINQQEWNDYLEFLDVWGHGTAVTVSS
Sequence of PGT-144 (4970_K22) (antibody) (VL): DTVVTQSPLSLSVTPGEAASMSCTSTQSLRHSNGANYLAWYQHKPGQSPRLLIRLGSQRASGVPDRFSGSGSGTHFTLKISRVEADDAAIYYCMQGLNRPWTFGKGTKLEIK
Sequence of PGT-143 (4980_N08) (antibody) (VH): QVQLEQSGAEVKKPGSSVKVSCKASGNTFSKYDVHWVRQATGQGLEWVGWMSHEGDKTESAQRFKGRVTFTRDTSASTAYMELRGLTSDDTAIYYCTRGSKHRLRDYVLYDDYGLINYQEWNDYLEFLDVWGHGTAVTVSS
Sequence of PGT-143 (4980_N08) (antibody) (VL): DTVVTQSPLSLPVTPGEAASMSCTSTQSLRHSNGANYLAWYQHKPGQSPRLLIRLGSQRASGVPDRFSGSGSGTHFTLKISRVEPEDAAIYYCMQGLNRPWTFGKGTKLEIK

For PGT-143 (4980_N08) (antibody), the IC50 (pseudovirus neutralization) [1] was 0.003 µg/mL, the IC50 (pseudovirus neutralization) [2] was 0.095 µg/mL and the IC50 (pseudovirus neutralization) [3] was 0.854 µg/mL. The IC50 (pseudovirus neutralization) [4] was > 50 µg/mL, the IC50 (pseudovirus neutralization) [5] was 0.01 µg/mL and the IC50 (pseudovirus neutralization) [6] was > 50 µg/mL. The IC50 (pseudovirus neutralization) [7] was > 50 µg/mL, the IC50 (pseudovirus neutralization) [8] was 0.122 µg/mL and the IC50 (pseudovirus neutralization) [9] was 5.36 µg/mL. The IC50 (pseudovirus neutralization) [10] was > 50 µg/mL, the IC50 (pseudovirus neutralization) [11] was 0.053 µg/mL and the IC50 (pseudovirus neutralization) [12] was 0.368 µg/mL. The IC50 (pseudovirus neutralization) [13] was > 50 µg/mL, the IC50 (pseudovirus neutralization) [14] was > 50 µg/mL and the IC50 (pseudovirus neutralization) [15] was > 50 µg/mL. For the same substance, the IC50 (pseudovirus neutralization) [16] was > 50 µg/mL, the IC50 (pseudovirus neutralization) [17] was > 50 µg/mL and the IC50 (pseudovirus neutralization) [18] was 0.002 µg/mL. For the same substance, the IC50 (pseudovirus neutralization) [19] was > 50 µg/mL, the IC50 (pseudovirus neutralization) [20] was > 50 µg/mL and the IC50 (pseudovirus neutralization) [21] was 13.6 µg/mL. For the same substance, the IC50 (pseudovirus neutralization) [22] was 0.135 µg/mL, the IC50 (pseudovirus neutralization) [23] was > 50 µg/mL and the IC50 (pseudovirus neutralization) [24] was > 50 µg/mL. The IC50 (pseudovirus neutralization) [25] was > 50 µg/mL, the IC50 (pseudovirus neutralization) [26] was > 50 µg/mL and the IC50 (pseudovirus neutralization) [27] was 1.41 µg/mL. The IC50 (pseudovirus neutralization) [28] was 0.153 µg/mL, the IC50 (pseudovirus neutralization) [29] was > 50 µg/mL and the IC50 (pseudovirus neutralization) [30] was > 50 µg/mL. The IC50 (pseudovirus neutralization) [31] was 0.386 µg/mL, the IC50 (pseudovirus neutralization) [32] was 0.009 µg/mL and the IC50 (pseudovirus neutralization) [33] was > 50 µg/mL. The IC50 (pseudovirus neutralization) [34] was > 50 µg/mL, the IC50 (pseudovirus neutralization) [35] was 0.277 µg/mL and the IC50 (pseudovirus neutralization) [36] was > 50 µg/mL. The IC50 (pseudovirus neutralization) [37] was > 50 µg/mL, the IC50 (pseudovirus neutralization) [38] was > 50 µg/mL and the IC50 (pseudovirus neutralization) [39] was > 50 µg/mL. The IC50 (pseudovirus neutralization) [40] was 44.6 µg/mL, the IC50 (pseudovirus neutralization) [41] was > 50 µg/mL and the IC50 (pseudovirus neutralization) [42] was 0.2 µg/mL. It also gave an IC50 (pseudovirus neutralization) [43] of 0.036 µg/mL, an IC50 (pseudovirus neutralization) [44] of 12.3 µg/mL and an IC50 (pseudovirus neutralization) [45] of 0.189 µg/mL. For the same substance, the IC50 (pseudovirus neutralization) [46] was > 50 µg/mL, the IC50 (pseudovirus neutralization) [47] was > 50 µg/mL and the IC50 (pseudovirus neutralization) [48] was 0.013 µg/mL. The IC50 (pseudovirus neutralization) [49] was 0.001 µg/mL, the IC50 (pseudovirus neutralization) [50] was > 50 µg/mL and the IC50 (pseudovirus neutralization) [51] was > 50 µg/mL. The IC50 (pseudovirus neutralization) [52] was 26.3 µg/mL, the IC50 (pseudovirus neutralization) [53] was 0.701 µg/mL and the IC50 (pseudovirus neutralization) [54] was 0.98 µg/mL. The IC50 (pseudovirus neutralization) [55] was > 50 µg/mL, the IC50 (pseudovirus neutralization) [56] was 0.082 µg/mL and the IC50 (pseudovirus neutralization) [57] was 0.972 µg/mL. The IC50 (pseudovirus neutralization) [58] was 17.4 µg/mL.
Substance PGT-144 (4970_K22) (antibody) has an IC50 (pseudovirus neutralization) [1] of 0.052 µg/mL, an IC50 (pseudovirus neutralization) [2] of 2.17 µg/mL and an IC50 (pseudovirus neutralization) [3] of 8.24 µg/mL. For the same substance, the IC50 (pseudovirus neutralization) [4] was > 50 µg/mL, the IC50 (pseudovirus neutralization) [5] was 0.893 µg/mL and the IC50 (pseudovirus neutralization) [6] was > 50 µg/mL. For the same substance, the IC50 (pseudovirus neutralization) [7] was > 50 µg/mL, the IC50 (pseudovirus neutralization) [8] was 16.3 µg/mL and the IC50 (pseudovirus neutralization) [9] was 32.7 µg/mL. The IC50 (pseudovirus neutralization) [10] was > 50 µg/mL, the IC50 (pseudovirus neutralization) [11] was 4.39 µg/mL and the IC50 (pseudovirus neutralization) [12] was 0.29 µg/mL. For the same substance, the IC50 (pseudovirus neutralization) [13] was > 50 µg/mL, the IC50 (pseudovirus neutralization) [14] was > 50 µg/mL and the IC50 (pseudovirus neutralization) [15] was > 50 µg/mL. The IC50 (pseudovirus neutralization) [16] was > 50 µg/mL, the IC50 (pseudovirus neutralization) [17] was > 50 µg/mL and the IC50 (pseudovirus neutralization) [18] was 0.104 µg/mL. For the same substance, the IC50 (pseudovirus neutralization) [19] was > 50 µg/mL, the IC50 (pseudovirus neutralization) [20] was > 50 µg/mL and the IC50 (pseudovirus neutralization) [21] was > 50 µg/mL. For the same substance, the IC50 (pseudovirus neutralization) [22] was 3.55 µg/mL, the IC50 (pseudovirus neutralization) [23] was > 50 µg/mL and the IC50 (pseudovirus neutralization) [24] was > 50 µg/mL. The IC50 (pseudovirus neutralization) [25] was > 50 µg/mL, the IC50 (pseudovirus neutralization) [26] was > 50 µg/mL and the IC50 (pseudovirus neutralization) [27] was 14.8 µg/mL. For the same substance, the IC50 (pseudovirus neutralization) [28] was 9.85 µg/mL, the IC50 (pseudovirus neutralization) [29] was > 50 µg/mL and the IC50 (pseudovirus neutralization) [30] was > 50 µg/mL. The IC50 (pseudovirus neutralization) [31] was > 50 µg/mL, the IC50 (pseudovirus neutralization) [32] was 0.113 µg/mL and the IC50 (pseudovirus neutralization) [33] was > 50 µg/mL. For the same substance, the IC50 (pseudovirus neutralization) [34] was > 50 µg/mL, the IC50 (pseudovirus neutralization) [35] was > 50 µg/mL and the IC50 (pseudovirus neutralization) [36] was > 50 µg/mL. The IC50 (pseudovirus neutralization) [37] was > 50 µg/mL, the IC50 (pseudovirus neutralization) [38] was > 50 µg/mL and the IC50 (pseudovirus neutralization) [39] was > 50 µg/mL. The IC50 (pseudovirus neutralization) [40] was > 50 µg/mL, the IC50 (pseudovirus neutralization) [41] was > 50 µg/mL and the IC50 (pseudovirus neutralization) [42] was 0.459 µg/mL. It also gave an IC50 (pseudovirus neutralization) [43] of 0.105 µg/mL, an IC50 (pseudovirus neutralization) [44] of 20.6 µg/mL and an IC50 (pseudovirus neutralization) [45] of 0.507 µg/mL. The IC50 (pseudovirus neutralization) [46] was > 50 µg/mL, the IC50 (pseudovirus neutralization) [47] was > 50 µg/mL and the IC50 (pseudovirus neutralization) [48] was 0.509 µg/mL. The IC50 (pseudovirus neutralization) [49] was 0.014 µg/mL, the IC50 (pseudovirus neutralization) [50] was > 50 µg/mL and the IC50 (pseudovirus neutralization) [51] was > 50 µg/mL. The IC50 (pseudovirus neutralization) [52] was > 50 µg/mL, the IC50 (pseudovirus neutralization) [53] was > 50 µg/mL and the IC50 (pseudovirus neutralization) [54] was 8.93 µg/mL. For the same substance, the IC50 (pseudovirus neutralization) [55] was > 50 µg/mL, the IC50 (pseudovirus neutralization) [56] was 0.382 µg/mL and the IC50 (pseudovirus neutralization) [57] was 1.16 µg/mL. The IC50 (pseudovirus neutralization) [58] was > 50 µg/mL.
